Data as given in patent US20050238665A1.

Target: Crotalus durissus terrificus venom
Assay: ELISA on C.d.t. venom (5 µg/ml coat)

## preimmune IgY (chicken egg yolk) (antibody)
  absorbance at dilution 1:5: < 0 absorbance
  absorbance at dilution 1:25: 0 absorbance
  absorbance at dilution 1:125: 0.003 absorbance
  absorbance at dilution 1:625: 0 absorbance
  absorbance at dilution 1:3125: 0.002 absorbance
  absorbance, undiluted: 0.003 absorbance
